According to patent US20090035321A1, “Intercellular adhesion molecules and their binding ligands” (Boehringer Ingelheim Pharmaceuticals, Inc., published 2009):

How the values were obtained:
[1] = target: ICAM-1 N269QSQI/IQAEQ (human) (UniProt P05362); assay: COS cells on LFA-1 coated plastic
[2] = target: Intercellular Adhesion Molecule-1 (ICAM-1), wild type, on the cell surface (human) (UniProt P05362); assay: COS cells on LFA-1 coated plastic
ICAM-1 N240DS/KNA = ICAM-1 N240DS/KNA (human, UniProt P05362); assay: COS cells on LFA-1 coated plastic
ICAM-1 S3VS/AGL = ICAM-1 S3VS/AGL (human, UniProt P05362); assay: COS cells on LFA-1 coated plastic
ICAM-1 S3/T = ICAM-1 S3/T (human, UniProt P05362); assay: COS cells on LFA-1 coated plastic
ICAM-1 G15/SA = ICAM-1 G15/SA (human, UniProt P05362); assay: COS cells on LFA-1 coated plastic
ICAM-1 D26QPK/ALPE = ICAM-1 D26QPK/ALPE (human, UniProt P05362); assay: COS cells on LFA-1 coated plastic
ICAM-1 K40/A = ICAM-1 K40/A (human, UniProt P05362); assay: COS cells on LFA-1 coated plastic
ICAM-1 Y52/F = ICAM-1 Y52/F (human, UniProt P05362); assay: COS cells on LFA-1 coated plastic
ICAM-1 E59/K = ICAM-1 E59/K (human, UniProt P05362); assay: COS cells on LFA-1 coated plastic
ICAM-1 D60/K = ICAM-1 D60/K (human, UniProt P05362); assay: COS cells on LFA-1 coated plastic
ICAM-1 D60/Q = ICAM-1 D60/Q (human, UniProt P05362); assay: COS cells on LFA-1 coated plastic
ICAM-1 Q73/T = ICAM-1 Q73/T (human, UniProt P05362); assay: COS cells on LFA-1 coated plastic
ICAM-1 S74/A = ICAM-1 S74/A (human, UniProt P05362); assay: COS cells on LFA-1 coated plastic
ICAM-1 K77T/ES = ICAM-1 K77T/ES (human, UniProt P05362); assay: COS cells on LFA-1 coated plastic
ICAM-1 E90/Q = ICAM-1 E90/Q (human, UniProt P05362); assay: COS cells on LFA-1 coated plastic
ICAM-1 E90/K [3] = target: T1, ICAM-1 E90/K (human, UniProt P05362); assay: COS cells on LFA-1 coated plastic
ICAM-1 L91/A = ICAM-1 L91/A (human, UniProt P05362); assay: COS cells on LFA-1 coated plastic
ICAM-1 E127/R = ICAM-1 E127/R (human, UniProt P05362); assay: COS cells on LFA-1 coated plastic
ICAM-1 H152HGA/EEGS = ICAM-1 H152HGA/EEGS (human, UniProt P05362); assay: COS cells on LFA-1 coated plastic
ICAM-1 N175TSA/QTLG = ICAM-1 N175TSA/QTLG (human, UniProt P05362); assay: COS cells on LFA-1 coated plastic
ICAM-1 S177/G = ICAM-1 S177/G (human, UniProt P05362); assay: COS cells on LFA-1 coated plastic
ICAM-1 Y476/TAG (human) = ICAM-1 Y476/TAG (human) (UniProt P05362); assay: COS cell adhesion to purified LFA-1, no antibody
[4] = target: Intercellular Adhesion Molecule-1 (ICAM-1), wild type, on the cell surface (human) (UniProt P05362); assay: COS cell adhesion to purified LFA-1, no antibody
ICAM-1 Q1/E = ICAM-1 Q1/E (human, UniProt P05362); assay: 35S-HRV14 on COS cells
ICAM-1 G46NN/ASI = ICAM-1 G46NN/ASI (human, UniProt P05362); assay: 35S-HRV14 on COS cells
ICAM-1 N48/H = ICAM-1 N48/H (human, UniProt P05362); assay: 35S-HRV14 on COS cells
ICAM-1 Y52/FA = ICAM-1 Y52/FA (human, UniProt P05362); assay: 35S-HRV14 on COS cells
ICAM-1 Q62PM/API = ICAM-1 Q62PM/API (human, UniProt P05362); assay: 35S-HRV14 on COS cells
ICAM-1 E87/K = ICAM-1 E87/K (human, UniProt P05362); assay: 35S-HRV14 on COS cells
ICAM-1 E90/K [5] = target: T1, ICAM-1 E90/K; assay: 35S-HRV14 on COS cells
ICAM-1 R125/E = ICAM-1 R125/E (human, UniProt P05362); assay: 35S-HRV14 on COS cells

purified LFA-1, bound to plastic (from UniProt P20701) (receptor)
LFA-1 Binding % (% of wild type) [1]: 101
% of COS cells bound (mean) [2]: 33%
LFA-1 Binding % (% of wild type) (ICAM-1 N240DS/KNA): 147
LFA-1 Binding % (% of wild type) (ICAM-1 S3VS/AGL): 18
LFA-1 Binding % (% of wild type) (ICAM-1 S3/T): 149
LFA-1 Binding % (% of wild type) (ICAM-1 G15/SA): 120
LFA-1 Binding % (% of wild type) (ICAM-1 D26QPK/ALPE): 30
LFA-1 Binding % (% of wild type) (ICAM-1 K40/A): 124
LFA-1 Binding % (% of wild type) (ICAM-1 Y52/F): 72
LFA-1 Binding % (% of wild type) (ICAM-1 E59/K): 134
LFA-1 Binding % (% of wild type) (ICAM-1 D60/K): 14
LFA-1 Binding % (% of wild type) (ICAM-1 D60/Q): 18
LFA-1 Binding % (% of wild type) (ICAM-1 Q73/T): 40
LFA-1 Binding % (% of wild type) (ICAM-1 S74/A): 70
LFA-1 Binding % (% of wild type) (ICAM-1 K77T/ES): 87
LFA-1 Binding % (% of wild type) (ICAM-1 E90/Q): 122
LFA-1 Binding % (% of wild type) (ICAM-1 E90/K [3]): 34
LFA-1 Binding % (% of wild type) (ICAM-1 L91/A): 87
LFA-1 Binding % (% of wild type) (ICAM-1 E127/R): 82
LFA-1 Binding % (% of wild type) (ICAM-1 H152HGA/EEGS): 85
LFA-1 Binding % (% of wild type) (ICAM-1 N175TSA/QTLG): 26
LFA-1 Binding % (% of wild type) (ICAM-1 S177/G): 59
% of Cells Expressing ICAM-1 that Bind LFA-1 (ICAM-1 Y476/TAG (human)): 20%
% of Cells Expressing ICAM-1 that Bind LFA-1 [4]: 20%

B1: human rhinovirus 14 (HRV14) (other)
chain: GAQVSTQKSGSHENQNILTNGSNQTFTVINYYKDAASTSSAGQSLSMDPSKFTEPVKDLMLKGAPALNSPNVEACGYSDRVQQITLGNSTITTQEAANAVVCYAEWPEYLPDVDASDVNKTSKPDTSVCRFYTLDSKTWTTGSKGWCWKLPDALKDMGVFGQNMFFHSLGRSGYTVHVQCNATKFHSGCLLVVVIPEHQLASHEGGNVSVKYTFTHPGERGIDLSSANEVGGPVKDVIYNMNGTLLGNLLIFPHQFINLRTNNTATIVIPYINSVPIDSMTRHNNVSLMVIPIAPLTVPTGATPSLPITVTIAPMCTEFSGIRSKSIVPQGLPTTTLPGSGQFLTTDDRQSPSALPNYEPTPRIHIPGKVHNLLEIIQVDTLIPMNNTHTKDEVNSYLIPLNANRQNEQVFGTNLFIGDGVFKTTLLGEIVQYYTHWSGSLRFSLMYTGPALSSAKLILAYTPPGARGPQDRREAMLGTHVVWDIGLQSTIVMTIPWTSGVQFRYTDPDTYTSAGFLSCWYQTSLILPPETTGQVYLLSFISACPDFKLRLMKDTQTISQTVALTEGLGDELEEVIVEKTKQTVASISSGPKHTQKVPILTANETGATMPVLPSDSIETRTTYMHFNGSETDVECFLGRAACVHVTEIQNKDATGIDNHREAKLFNDWKINLSSLVQLRKKLELFTYVRFDSEYTILATASQPDSANYSSNLVVQAMYVPPGAPNPKEWDDYTWQSASNPSVFFKVGDTSRFSVPYVGLASAYNCFYDGYSHDDAETQYGITVLNHMGSMAFRIVNEHDEHKTLVKIRVYHRAKHVEAWIPRAPRALPYTSIGRTNYPKNTEPVIKKRKGDIKSY
modifications: [35S]-Met labeled
HRV Binding % (ICAM-1 Q1/E): 149 % of wild type
HRV Binding % (ICAM-1 G46NN/ASI): 9 % of wild type
HRV Binding % (ICAM-1 N48/H): 81 % of wild type
HRV Binding % (ICAM-1 Y52/FA): 125 % of wild type
HRV Binding % (ICAM-1 Q62PM/API): 182 % of wild type
HRV Binding % (ICAM-1 E87/K): 27 % of wild type
HRV Binding % (ICAM-1 E90/K [5]): 50 % of wild type
HRV Binding % (ICAM-1 R125/E): 157 % of wild type
